The record followed here is patent US20020115613A1, “Treatment of prostate cancer” (priority 2001, published 2002).

Format in all cases: cell-based
Test [1] has as its system LNCaP C4-2 cells. The test is described as follows: Caspase-9 colorimetric activity assay. The following applies: FIG. 4B. The method, then: (§1) LNCaP were obtained from American Type Culture Collection (Rockville, Md.) and LNCaP C4-2 cells were purchased from Urocor Inc., Oklahoma City, Okla. Cells were grown in RPMI 1640 medium supplemented with 10% (LNCaP) or 5% (LNCaP C4-2) fetal bovine serum (Hyclone, Logan, Utah) and grown in the presence of 5% CO2 at 37° C. Cells were treated with 10 μM Mifepristone (Sigma, St. Louis, Mo.) for three days or with increasing concentrations (from 200 ng/ml to 600 ng/ml) of TRAIL (Biomol Research Laboratories, Inc., Plymouth Meetings, Pa.) for varying time intervals 2, 4, 6, 8, 16, 20 and 24 hours (hr). Thus, for treatment with Mifepristone, cells were treated with Mifepristone for three days and then some cells treated (without washing) with TRAIL for indicated periods. Upon completion of the experiment, cells were harvested, and total proteins, cytosol or mitochondrial fractions were isolated as described below. At least three experiments were conducted with a minimum of four plates per treatment per experiment. As caspase-9 is a key protein in the formation of apoptosome, assays were performed to determine the activity of caspase-9. Caspase-9 activity was assayed using a colorimetric substrate, […] with a kit from Chemicon International, Inc. (Temecula, Calif.). Cleavage of the C-terminal peptide bond by the enzyme released p-nitroaniline, which was measured at 405 nm. Pure recombinant human caspase-9 was utilized as a positive control.

Test [2] deals with LNCaP cells. The test is described as follows: Caspase-9 colorimetric activity assay. As to conditions: FIG. 4A. The method, then: as §1
The test system of test [3] is LNCaP C4-2 cells. The test is described as follows: Apoptosense assay (M30 ELISA, cleaved cytokeratin 18). The procedure:
LNCaP were obtained from American Type Culture Collection (Rockville, Md.) and LNCaP C4-2 cells were purchased from Urocor Inc., Oklahoma City, Okla. Cells were grown in RPMI 1640 medium supplemented with 10% (LNCaP) or 5% (LNCaP C4-2) fetal bovine serum (Hyclone, Logan, Utah) and grown in the presence of 5% CO2 at 37° C. Cells were treated with 10 μM Mifepristone (Sigma, St. Louis, Mo.) for three days or with increasing concentrations (from 200 ng/ml to 600 ng/ml) of TRAIL (Biomol Research Laboratories, Inc., Plymouth Meetings, Pa.) for varying time intervals 2, 4, 6, 8, 16, 20 and 24 hours (hr). Thus, for treatment with Mifepristone, cells were treated with Mifepristone for three days and then some cells treated (without washing) with TRAIL for indicated periods. Upon completion of the experiment, cells were harvested, and total proteins, cytosol or mitochondrial fractions were isolated as described below. At least three experiments were conducted with a minimum of four plates per treatment per experiment. Two methods were used to measure induction of apoptosis by drug treatment: the MTT assay and the Apoptosense assay. The MTT assay measures mitochondrial enzyme activity and is indicative of the number of surviving cells. […] Cells were plated in petri dishes and after completion of the treatment, cells were harvested and total protein extracted as described below. […] Color was developed by adding tetramethylbenzidine solution and the optical density of the bound antibody was determined at 450 nm on a Spectra MAX 340 microplate reader (Molecular Devices, Menlo Park, Calif.). Standard solution supplied by the supplier was used for generating standard curves.

Test [4] concerns LNCaP C4-2 cells. The test is described as follows: MTT assay (cell survival). As to conditions: for cell survival: 400 ng/ml TRAIL and/or 10 μM Mifepristone for three days, FIG. 1B. The method, then:
(§2) LNCaP were obtained from American Type Culture Collection (Rockville, Md.) and LNCaP C4-2 cells were purchased from Urocor Inc., Oklahoma City, Okla. Cells were grown in RPMI 1640 medium supplemented with 10% (LNCaP) or 5% (LNCaP C4-2) fetal bovine serum (Hyclone, Logan, Utah) and grown in the presence of 5% CO2 at 37° C. Cells were treated with 10 μM Mifepristone (Sigma, St. Louis, Mo.) for three days or with increasing concentrations (from 200 ng/ml to 600 ng/ml) of TRAIL (Biomol Research Laboratories, Inc., Plymouth Meetings, Pa.) for varying time intervals 2, 4, 6, 8, 16, 20 and 24 hours (hr). Thus, for treatment with Mifepristone, cells were treated with Mifepristone for three days and then some cells treated (without washing) with TRAIL for indicated periods. Upon completion of the experiment, cells were harvested, and total proteins, cytosol or mitochondrial fractions were isolated as described below. At least three experiments were conducted with a minimum of four plates per treatment per experiment. Two methods were used to measure induction of apoptosis by drug treatment: the MTT assay and the Apoptosense assay. The MTT assay measures mitochondrial enzyme activity and is indicative of the number of surviving cells. […] Cells were seeded in 96-well plates (6000 cells/well) and treatment was started 24 hr after seeding the cells. After completion of the treatment, cells were incubated at 37° C. with the MTT reagent for 3 hr and processed according to manufacturers instructions (Promega Corporation, Madison, Wis.). Color development was measured at 490 nm on a Spectra MAX 340 microplate reader (Molecular Devices, Menlo Park, Calif.).

Test [5] relates to LNCaP cells. The test is described as follows: MTT assay (cell survival). The following applies: for cell survival: 400 ng/ml TRAIL and/or 10 μM Mifepristone for three days, FIG. 1A. The method, then:
as §2
On the technique in general: Tetrazolium dyes change colour on reduction, which living cells bring about.

The mark [6] stands for this setting: 200 ng/ml TRAIL compared with 400 ng/ml, data not shown.
The mark [7] stands for this setting: 600 ng/ml TRAIL compared with 400 ng/ml, data not shown.

Consider `CC#C[C@]1(O)CC[C@H]2[C@@H]3CCC4=CC(=O)CCC4=C3[C@@H](c3ccc(N(C)C)cc3)C[C@@]21C` [Mifepristone], for which the caspase-9 activity result in test [1] and in test [2] was “induced caspase-9 activity” each time. Also, in test [3], the “M30 activity (in words)” value is reported as “lower M30 activity”. The cell survival result in test [4] and in test [5] was “little effect on survival” in each case.

B1: Tumor necrosis factor α—Related Apoptosis Inducing Ligand (protein, UniProt P50591 1-281, looked up)
Tumor necrosis factor ligand …: MAMMEVQGGPSLGQTCVLIVIFTVLLQSLCVAVTYVYFTNELKQMQDKYSKSGIACFLKEDDSYWDPNDEESMNSPCWQVKWQLRQLVRKMILRTSEETISTVQEKQQNISPLVRERGPQRVAAHITGTRGRSNTLSSPNSKNEKALGRKINSWESSRSGHSFLSNLHLRNGELVIHEKGFYYIYSQTYFRFQEEIKENTKNDKQMVQYIYKYTSYPDPILLMKSARNSCWSKDAEYGLYSIYQGGIFELKENDRIFVSVTNEHLIDMDHEASFFGAFLVG
notes: 281 amino acid type II transmembrane protein of the tumor necrosis factor α family; purchased from Biomol
As to B1, the caspase-9 activity result in test [1] and in test [2] was “induced caspase-9 activity” each time. Besides, the M30 activity in test [3] (between 8 hr to 20 hr treatment, FIG. 1D) is recorded as 1.4-2.0 U/ug. Further, the “cell death at lower concentration of TRAIL” value in test [4] (setting [6]) and in test [5] (setting [6]) was “lower cell death” each time. For the same molecule, the cell survival result is listed as “reduced cell survival as early as 8 hr” in test [4] and “did not alter cell survival significantly” in test [5]. The “apoptosis at higher dose of TRAIL” value in test [4] (setting [7]) and in test [5] (setting [7]) was “did not increase apoptosis significantly” in each case.
